# From IntAct's records for PubMed 18093972
# B1: Homeodomain-interacting protein kinase 2 (Mus musculus), Q9QZR5 (parent)
# chain: MAPVYEGMASHVQVFSPHTLQSSAFCSVKKLKVEPSSNWDMTGYGSHSKVYSQSKNIPPSQPASTTVSTSLPIPNPSLPYEQTIIFPGSTGHIVVTSASSTSVTGQVLGGPHNLMRRSTVSLLDTYQKCGLKRKSEEIENTSSVQIIEEHPPMIQNNASGATVATATTSTATSKNSGSNSEGDYQLVQHEVLCSMTNTYEVLEFLGRGTFGQVVKCWKRGTNEIVAIKILKNHPSYARQGQIEVSILARLSTESADDYNFVRAYECFQHKNHTCLVFEMLEQNLYDFLKQNKFSPLPLKYIRPVLQQVATALMKLKSLGLIHADLKPENIMLVDPSRQPYRVKVIDFGSASHVSKAVCSTYLQSRYYRAPEIILGLPFCEAIDMWSLGCVIAELFLGWPLYPGASEYDQIRYISQTQGLPAEYLLSAGTKTTRFFNRDTDSPYPLWRLKTPDDHEAETGIKSKEARKYIFNCLDDMAQVNMTTDLEGSDMLVEKADRREFIDLLKKMLTIDADKRVTPIETLNHPFVTMTHLLDFPHSAHVKSCFQNMEICKRRVNMYDTVNQSKTPFITHVAPSTSTNLTMTFNNQLTTVHNQAPTTSSATLSLANPEVSILNYQSALYQPSAASMAAVAPRSMPLQTGTAQICARPDPFQQALIVCPPGFQGLQASPSKHAGYSVRMENAVPIVTQAPGAQPLQIQPGLLAQQAWPGGAQQILLPPAWQQLTGVATHTSVQHAAVIPETMAGTQQLADWRNTHAHGSHYNPIMQQPALLTGHVTLPAAQPLNVGVAHVMRQQPTSTTSSRKSKQHQSSVRNVSTCEVTSSQAISSPQRSKRVKENTPPRCAMVHSSPACSTSVTCGWGDVASSTTRERQRQTIVIPDTPSPTVSVITISSDTDEEEEQKHAPTSTVSKQRKNVISCVTVHDSPYSDSSSNTSPYSVQQRTGHNGTNTLDTKGGLENHCTGNPRTIIVPPLKTQASEVLVECDSLGPAISASHHSSSFKSKSSSTVTSTSGHSSGSSSGAIAYRQQRPGPHFQQQQPLNLSQAQQHMAADRTGSHRRQQAYITPTMAQAPYTFPHNSPSHGTVHPHLAAAAHLPTQPHLYTYTAPTALGSTGTVAHLVASQGSARHTVQHTAYPASIVHQVPVSMGPRVLPSPTIHPSQYPAQFAHQTYISASPASTVYTGYPLSPAKVNQYPYI
# partner: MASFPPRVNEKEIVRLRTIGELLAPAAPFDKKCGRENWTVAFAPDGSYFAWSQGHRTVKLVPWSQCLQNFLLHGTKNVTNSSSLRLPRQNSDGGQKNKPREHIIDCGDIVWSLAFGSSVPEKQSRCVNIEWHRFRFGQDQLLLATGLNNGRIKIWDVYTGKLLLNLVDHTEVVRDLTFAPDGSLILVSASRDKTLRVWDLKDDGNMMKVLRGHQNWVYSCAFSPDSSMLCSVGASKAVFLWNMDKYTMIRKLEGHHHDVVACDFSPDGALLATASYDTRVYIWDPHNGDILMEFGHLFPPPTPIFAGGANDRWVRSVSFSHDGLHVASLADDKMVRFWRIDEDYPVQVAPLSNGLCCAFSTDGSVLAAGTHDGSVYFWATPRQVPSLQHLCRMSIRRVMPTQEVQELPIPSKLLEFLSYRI
# Variants of: B1
# Conditions: with wsb1_human WSB1, Q9Y6I7
row,effect of a mutation on the interaction,Variant
1,increasing interaction,K228R
